According to patent publication US20220378949A1, “NEUROTROPHIN RECEPTOR BINDING CONJUGATE COMPOSITIONS, METHODS OF USE AND METHODS OF MAKING THEREOF” (priority 2019, published 2022):

Legend:
[1] = Stability of rhNGF in plasma; assay type: in vitro ADME; conditions: 37° C.
Description: As an example of an intracellularly active small molecule compound (SMC), the glucocorticoid fluocinolone acetonide (FA) was conjugated using a heterobifunctional linker to rhNGF and rhBDNF, both of which constructs exerted analgesic (anti-inflammatory) activity in vivo. Dorsal Root Ganglia (DRG) in diseases of the peripheral nervous system (PNS) play a fundamental role in chronic pain generally. NGF and BDNF localize due to their selectivity for distinct populations of peripheral neurons by binding to TrkA and TrkB expressed largely in nociceptors and proprioceptors, respectively. In treating forms of pain in which the DRG are involved, either NGF and/or BDNF should deliver intracellularly active FA by axonal transport to subpopulations of sensory neuron cell bodies in DRG and via their central synaptic terminals, into the dorsal horn of the spinal cord. Since TrkB is highly expressed in the neurofilament-1-expressing subpopulation of low-threshold mechanosensory neurons in the DRG, peripherally injected BDNF should deliver FA to the DRG. In treating pain, FA may alter neuronal excitability to be released or diffuse, acting on nearby inflammatory cells e.g. microglia, astrocytes, or satellite glia. rhNGF is stable in plasma for up to 4 days at 37° C.

[2] = administered sub-cutaneously (SQ); cited from earlier work
[3] = tested on: superior cervical ganglia (SCG) neurons; assay: Retrograde axonal transport of 800-rhNGF in Xona microfluidic chambers, LI-COR Odyssey imaging; assay type: cell-based, rat; conditions: 30 ng/mL at distal axons, 48 hours
Description: (§1) Increasing conjugation leads to decreased protein conjugate solubility. A construct where the active agent has a greater molecular weight and less hydrophilic Dyomics DY-800 Near InfraRed (NIR) dye was attached directly to recombinant human NGF (rhNGF) (FIG. 2). In subsequent studies, we purified DAR sub-species using a (Waters column) reverse phase HPLC (RP-HPLC). […] Cultures were maintained until the axons extended through the channels in the microfluidic chambers to the side without cells plated. FIG. 2B depicts 800-rhNGF, 30 ng/mL was added to the wells where the terminal (distal) axons had extended. 48 hours after addition of 800-rhNGF to distal ends in left chambers, chambers were imaged on a LI-COR Odyssey scanner. […] FIGS. 2C and 2D depict brightfield images of wells containing cell bodies, showing improved visualization of cell clumps for comparison to images containing 800 NIR cell bodies. Neuronal Survival Confirms TrkB Binding Activity is Intact after Synthetic Manipulation.

TrkA receptors = molecular target: T1, TrkA receptors (Rattus norvegicus, UniProt P35739); assay: Uptake and retrograde transport of fluorescent NGF in compartmented cultures of SCG neurons, competition with unlabelled NGF; assay type: cell-based; conditions: for Uptake of fluorescent NGF at distal ends of neurons (TrkA-mediated endocytosis): distal axon compartments, SCG neurons
T1 construct: In vitro systems that use primary neurons express Trk receptors on distal ends were used; endogenous in cells
T1 sequence (P35739 33-799): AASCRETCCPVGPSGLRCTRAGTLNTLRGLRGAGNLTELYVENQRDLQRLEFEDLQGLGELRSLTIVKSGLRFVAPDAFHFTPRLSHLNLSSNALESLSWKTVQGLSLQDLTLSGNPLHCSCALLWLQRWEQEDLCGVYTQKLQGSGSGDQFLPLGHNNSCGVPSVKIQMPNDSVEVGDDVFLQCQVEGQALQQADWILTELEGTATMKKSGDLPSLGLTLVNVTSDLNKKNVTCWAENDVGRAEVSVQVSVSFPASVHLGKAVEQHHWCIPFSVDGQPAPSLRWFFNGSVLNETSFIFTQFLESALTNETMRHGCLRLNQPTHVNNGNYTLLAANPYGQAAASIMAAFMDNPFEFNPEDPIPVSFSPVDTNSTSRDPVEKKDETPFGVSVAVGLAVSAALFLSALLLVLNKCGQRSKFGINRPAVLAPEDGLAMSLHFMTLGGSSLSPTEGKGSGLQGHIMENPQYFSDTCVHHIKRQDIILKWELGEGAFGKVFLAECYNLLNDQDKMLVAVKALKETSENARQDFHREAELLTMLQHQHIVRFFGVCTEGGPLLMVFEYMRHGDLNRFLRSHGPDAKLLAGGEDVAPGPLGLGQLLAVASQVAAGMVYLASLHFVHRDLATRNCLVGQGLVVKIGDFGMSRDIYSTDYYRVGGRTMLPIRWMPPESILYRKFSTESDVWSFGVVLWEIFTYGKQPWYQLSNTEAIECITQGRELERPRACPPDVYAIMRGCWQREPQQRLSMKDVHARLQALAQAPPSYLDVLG
Protocol: Confirm Trk receptor binding. […] Receptor binding activity where up to 100× unmodified mNGF is co-administered with the Trk binding agent was determined. 488-mNGF (FIG. 1A) is shown in cell bodies, after binding to TrkA, endocytosis and transport to the central chamber of the in vitro system. In FIG. 1B, TrkA was confirmed here by adding 1000 ng/ml unmodified mNGF to compete with 100 ng/ml 488-mNGF for the same TrkA receptors. FIG. 1C: Neurons in compartmented cultures were given approximately 10 ng/mL fNGF (as determined by neuronal survival bioassay), or 10 ng/mL fNGF+100× excess unlabelled NFG (1000 ng/mL) in the distal axon compartments. 24 hours later fluorescence images of the cell bodies were obtained (FIG. 1C). […] Alexa Fluor requirement for DAR<4 per mouse NGF monomer. Fluorescent dye Alexa Fluor 488, which due to its size and hydrophobicity is attached to NGF without using a spacer of any length binds to TrkA, is endocytosed after binding, and is transported retrogradely to the neuronal cell body. In FIG. 4, we show in vitro results for a “mixed DAR” 800-rhNGF of 1.64 which is expressed as an average of 1-4 dye molecules per monomer using standard analytical methods mass spectroscopy (MS) or high performance liquid chromatography (HPLC), in each case where the NT involved is a dimer. […] Survival. […] SGC neurons were harvested from E-21 Sprague Dawley rat pups.

[4] = tested on: superior cervical ganglia (SCG) neurons; assay: Neuronal survival assay in primary superior cervical ganglia neurons (compartmented cultures / microfluidic devices); assay type: cell-based, rat; conditions: FIG. 4 and FIG. 1C
Protocol: In vitro systems that use primary neurons express Trk receptors on distal ends were used so that both survival and Trk binding activity may be assessed following synthetic manipulation in producing conjugates.
Confirm Trk receptor binding. […] Receptor binding activity where up to 100× unmodified mNGF is co-administered with the Trk binding agent was determined. […] FIG. 1C: Neurons in compartmented cultures were given approximately 10 ng/mL fNGF (as determined by neuronal survival bioassay), or 10 ng/mL fNGF+100× excess unlabelled NFG (1000 ng/mL) in the distal axon compartments. 24 hours later fluorescence images of the cell bodies were obtained (FIG. 1C). […] Survival. […] SGC neurons were harvested from E-21 Sprague Dawley rat pups.
DAR analytics were calculated using Reverse Phase High Performance Liquid Chromatography (RP-HPLC) and/or mass spectroscopy (MS). […] (FIG. 5)

[5] = tested on: Retinal Ganglion Cells (RGCs); assay: Neuronal survival of primary Retinal Ganglion Cells with labeled rhBDNF (TrkB binding intact); assay type: cell-based, rat
Protocol: Labeled BDNF test articles, either 800-rhBDNF or FA-rhBDNF, were also assessed to as to whether the compositions would sustain neuronal survival by plating conjugates in Retinal Ganglion Cells (RGCs). RGCs were isolated from P6 rats by sequential immune-panning. Retinas are isolated and enzymatically digested by papain followed by mechanical dissociation into a single-cell suspension. Cells are negatively panned to remove macrophages and other nonspecifically adhering cells and then positively panned for RGCs using the Thy1.1 T11D7 hybridoma supernatant.
as §1
High Performance Liquid Chromatography and mass spectrometry was used to quantify the number of dye molecules attached or crosslinked to rhBDNF (i.e., the ratio of fluorescent dye in the 800 region to rhBDNF).

[6] = average ratio of about 3.1 per monomer

In the case of “rhNGF: recombinant human NGF (nerve growth factor)”, the “Stability in plasma (time stable)” value [1] is given as “up to 4 days” and the “Maximum Tolerated Dose (MTD)” value [2] is given as 1 µg/kg.

For “800-rhNGF: Dyomics DY-800 Near InfraRed (NIR) dye attached directly to recombinant human NGF (rhNGF)”, the “Retrograde transport to cell bodies (800 NIR labelled cell bodies visualized)” value [3] was “retrogradedly transported”.

B1: 488-mNGF: fluorescent dye Alexa Fluor 488 attached to murine NGF (conjugate, UniProt P01139 122-241, looked up)
Beta-nerve growth factor: SSTHPVFHMGEFSVCDSVSVWVGDKTTATDIKGKEVTVLAEVNINNSVFRQYFFETKCRASNPVESGCRGIDSKHWNSYCTTTHTFVKALTTDEKQAAWRFIRIDTACVCVLSRKATRRG
modifications: Alexa Fluor 488 dye
notes: fluorescent dye Alexa Fluor 488 attached to murine NGF
For B1, the “Accumulation of fluorescence in the cell bodies with 100× excess unlabelled NGF” value (TrkA receptors; 10 ng/mL fNGF + 1000 ng/mL unlabelled NGF in distal axon compartments, 24 hours) was “effectively inhibited”, the “Uptake of fluorescent NGF at distal ends of neurons (TrkA-mediated endocytosis)” value (TrkA receptors) was “endocytosed at the distal ends” and the “Uptake of fluorescent NGF at distal ends of neurons (TrkA-mediated endocytosis)” value (TrkA receptors; listed as fNGF) was “specific, TrkA receptor-mediated process”. For the same molecule, the Survival of neurons [4] was “sustained the survival of neurons”.

B2: 800-rhBDNF: NIR dye in the 800 region directly attached to rhBDNF (conjugate, UniProt P23560 19-247, looked up)
Neurotrophic factor BDNF …: APMKEANIRGQGGLAYPGVRTHGTLESVNGPKAGSRGLTSLADTFEHVIEELLDEDQKVRPNEENNKDADLYTSRVMLSSQVPLEPPLLFLLEEYKNYLDAANMSMRVRRHSDPARRGELSVCDSISEWVTAADKKTAVDMSGGTVTVLEKVPVSKGQLKQYFYETKCNPMGYTKEGCRGIDKRHWNSQCRTTQSYVRALTMDSKKRIGWRFIRIDTSCVCTLTIKRGR
modifications: NIR 800 dye
notes: NIR dye in the 800 region directly attached to rhBDNF
For B2, the “Neuronal survival in primary neurons of Retinal Ganglion Cells” value ([5]; FIG. 3) was “sustained neuronal survival”, the Intraneuronal uptake [5, 6] was “intraneuronal uptake” and the Trk binding [5, 6] was “Trk binding”.
